In the nanobody polyreactivity screen of Harvey et al. (2022):

Test: yeast display, Sf9 membrane polyspecificity reagent, FACS + sequencing; frameworks hold sequencing errors
Method in brief: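 Sorting gates, low and high (top ~1%), were placed on anti-HA fluorescence to track expression and on streptavidin fluorescence to track reagent binding. A clone's polyreactivity label is taken from the gate it came out of. The reagent was 10% biotinylated, detergent-solubilized Sf9 membrane, applied for 1 hour at 4 °C to galactose-induced yeast display cells.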

Row | Sequence | polyreactivity (PSR sort gate)
1 | QVQLVESGGGLVQAGGSLRLSCAASGRTYSYNAMGWYRQEPGKERELVAGITYTGGRTYYADSVKGRFTISRDNAKNTVYLQMNSLKPEDTAVYYCAVGEYGHWLYRYEYWGQGTQVTVSS | high polyreactivity
2 | QVQLVESGGGLVQAGGSLRLTCDASGSTFVNYAMGWYRQAPGKERELVAAITDSGGSTYYADSVKGRFTISRDNAKNTVYLQMNCLKPEDTAVYYCATEGYYYYTSYDYWGQGTQVTVSS | low polyreactivity
3 | QVQLVESGGGLVQAGGSLRLSCAASGFIFVRYTMGWYRQAPGKERELVAAISRSSDSTYYADSVKGRFSISRDNAKNTVYLQMNSLKPEVTAVYYCAAFSGFSPFRFYYWGQGTQVTVSS | high polyreactivity
4 | QVQLVESGGGLVQAGGSLRLSCAPSGSIFRLYAMGWYRQAPGKERELVAAITSSGGRTYYADSVKGRFTISRDNAKNTVYLQINSLKPVDTAVYYCAAVGNRGDDYYWGQGTQVTVSS | high polyreactivity
5 | QVQLVESGGGLVQAGGSLRLSCAASGGTLRYYVMGWYRQAPGKERELVAAISWSGDSTYYADSVKGRFTISRDNAKNTVYLEMNSLKPDDTAVYYCAATYYVTYYYGQANHGYDYWGPGTQVTVSS | low polyreactivity
6 | QVQLVESGGGLVQAGGSLRLSCAASGIIFVWYAMGWYRQAPGKERELVAAIRSGGITNYADSVKGRFTISRDNAKNTVYLQMNSLKPEDTAVYYCDAPYRTDTGDDYWGQGTQVTVSS | low polyreactivity
7 | QVQLVESGGGLVQAGGSLRLSCAASGFIFTRNRMGWYRHAPGKETELVAAISSGGRTYYADSVKGRFTISRDNAMNTVYLQMNSLIPEDTAVYYCNAGNRGVYRYDYWGQGTQVNVSS | high polyreactivity
8 | QVQLVESGGGLVQAGGSLRLSCAASGSTLWRYAMGWYRQAPGKEREFVAAISGSGGSTYYADSVKGRFTISRDNAKNTVYLLMNSLKPEDTAVYYCAASRKYRNPDRSMYYWGQGTQVTVSS | high polyreactivity
9 | QVQLVESGGGLVQAGGSLRLSCAASGSISSYAMGWYRQAPGKERELVASITWHGGGTYYADSVKGRFTISRDNAKNTVYLQMNSLKPEDTAVYYCNADYVYSWYEPLKYNYWGQGTQVTVSS | low polyreactivity
10 | QVQLVESGGGLVQAGGSLRLSCAASGFTFNAYAMGWYRQAPGKERELVAAINVSGGITYYADSVKGRFTISRDNAKNTVYLQMNSLNPEDTAVYYCAKGLDVVQRSEFDYWGQGTQVTVSS | low polyreactivity
11 | QVQLVESGGGLVLAGGSLRLSCAASGSIFGGYAMGWYRPAPGKERELVAAISSGDSTYYADSVKGRFTISRDNAKNTVYLQINSLKPEDTAVYYCAAAFFARDRKRYNYWGQGTQVTVSS | high polyreactivity
12 | QVQLVESGGGLVQAGGSLRLSCAASGTFQRYAMGWYRQAPGKERELVAGISSAGDTNYADSVKGRFTISRDNAKNTVYLQMKSLKPEDTAVYYCNAAYFAGPADDKFDYWGQGTQVTVSS | low polyreactivity
13 | QVQLVESGGGLVQAGGSLRLSCAASGSTFYGYAMGWYRQAPGKERELVAAISSSGTRTYYADSVKGRFTISRDNAKNTVYLQMNSLKPEDTAVYYCNAYYYIPFEGRGYSKMDYWGQGTQVTVSS | high polyreactivity
14 | QVQHVESCGGLVQAGGSLRLSCAASGYIFSIYAMGWSRQAPGKERELVAAITWSGATTYYADSVKGRFSISRDNAKNTVYLQMNSLKPEDTAVYYCNADYWHYYEDYESWGQGTQVTVSS | low polyreactivity
15 | QVQLVESGGGIVQAGGSLRLSCAASGRISAYNAMGWYRQAPGKERELVAAITYDGGSTYYADSVKGRFTISRDNAKNTVYLHMNSLKPEDTAVYYCNAGADSVSFRDGGITTYDYWGQGTQVTVSS | low polyreactivity
16 | QVQLVESGGGLVQAGGSLRLSCAASGITFYGYAMGWYRQAPGKERELVAAISKSGGSTHYADSVKGRFTISRDNAKNTVYLQMNSLKPEDTAVYYCATEGYYYYTSYDYWGQGTQVTVSS | low polyreactivity
17 | QVQLVESGGGLVQAGGSLRLTCAASGSIFSYNVMGWYRQAPGKERELVAVITGSGGSTYYADSVKGRFTISRDNAKNTVYLQMYSLKPEDTAVYYCAATYSGWQWYETYYYWGQGTQVTVSS | low polyreactivity
18 | QVQLVESGGGLVQAGGSLRLSCAASGFIFPGNVMGWYIQAPWKERELVAAISSGGGSTYYADSVKGRFTISRDNAKNSVYLQMNSLKPEDTAVYYCAKRTPRKWGQGTQVTVSS | high polyreactivity
19 | QVQLVESGGGLVQAGGSLRLSCAASVRTFYFYTMGWYRQSPGKERELVATIRWSAGSTYYADSVKGRFTISRDNAKNTVYLQMNSLKPEDTAVYYCNADPFVYSSWQYGYWGQGTQVTVSS | high polyreactivity
20 | QVQLVESGGGLVQAGGSLRLSCAASGRIYYYAMGWYRQAPGKERELVAAISRGGSTKYADSVKGRFTISRDNAKNTVYLQMNSLKPEETAVYYCAAGGTVYRYDYWGQGTQVTVSS | low polyreactivity
21 | QVQLVESGGGLVQAGGSLRLSCAASGFTFVQYAMGWYRPAPGKERELVATITNGGGSTYYADSVKGRFTISRDNAKNTVYLQMNSLKPEDPAVYYCNADSGGRGAPTSTYDYWGQGTQVTLSS | low polyreactivity
22 | QVQLVESGGGLVQAGGSLRLSCAASGSTFSLYAMGWYRQAPGKERELVAAITRSGGGTHYADSVKGRFTISRDNAKNTVYLQMNSLKPEDTAVYYCAKRQSGYRYDYWGQGTEVTVSS | low polyreactivity

Row | Sequence | polyreactivity (PSR sort gate)
23 | QVQLVESGGGLVQAGGSLRLSCAASGNNFYRNAMGWSRQAPGKERELVAAINSGSSTKYADSVKGRFTISRDNAKNTVYLQMNSLKPEDTAVYYCAKRRYTAIWYGYWGQGSQVTVSS | high polyreactivity
24 | QVHLVESGGGLVQAGGSLRLSCAASGYTFLANAMGWYSQAPGKERELVAAISSGGTTYYADSVKGRFTISRDNAKNTVYLQMNSLKPEDTAVYYCATVFRDYDFNHWGQGTQVTVSS | low polyreactivity
25 | QVQLVESGGGLVQAGGSLRLICAASGFTFAYYAMGWYRQATGKERELVAAISSGGGTYYADSVKGRFTISRDNAKNTVYLQMNSLKPEDTAVYYCNARYYFVFGRYNYWGQGTQVTVSS | high polyreactivity
26 | QVQLVESGGGLVQAGGSLRLSCAASGFTFGGYAMGWYRQAPGKERELVAAISGRGGRTYYADSVKGRFTISRDNAKNTVYLQMNSLKPEDTAVYYCAAPTNHWTLLSGDYWGQGTQVTVSS | high polyreactivity
27 | QVQLVESGGGLVQAGGSLRLSCAASGIIFYLYAMGWYRQAPGKERELVAAISRRGGSTYYADSVKGRFTISRDKAKNTVYLQMNSLKPEDTAVYYCAATIGTFGYGYWGQGTQVTVSS | high polyreactivity
28 | QVQLVESGGGLVQAGGSLRLSCAASGYTFGYNAMGWYRQAPGKERELVAAISWNAGSTYYADSVKGRFTISRDNAKNTVYLQMNSLKPEDTAVYYCATEGTYIYNYWGQGTQVTVSS | low polyreactivity
29 | QVHLVESRGGLVQAGGSLRLSCAASGRPFNPYAMGWYRQAPGKEREFVYADSVKGRFTISRDNAKNTVYLQMNSLKPEDTAVYYCAADVYPDTLHPYNYDYWGQGTQVTVSS | low polyreactivity
30 | QVQLVESGGGLVQAGGSLRLSCCASGFTVSSYARAWYRQAPGKERELVAAITYRGGSTYYADSVKGRFTISRDNAKNTVFLLMNSLKPEDTAVYYCAARWGYRMYWGQGTQVTVSS | high polyreactivity
31 | QVQLVESGAGLVQAGGSLRLSCAASGRTFYYYAMGWYRQAPGKERELVAAISSNGGSTYADSVKGRFTISRDNAKNTVYLQMNSLKPEDTAVYYCAAEPWWQEGDYWGQGTQVTVSS | high polyreactivity
32 | QVQLVESGGGLVQAGGSLRLSCAASGRIFGYYAMGWYRQAPGKERELVAAIRWSSGRTYYADSVKGRFTISRDNAKNTVYLQMNSLKPEDTAVYYCAKDGGLRKFDYWGQGTQVTVSS | high polyreactivity
33 | QVQLVESGGGLVQAGGSLRLSCAASGLTFYGYAMGWYRQAPGKERELVAAIRWSGGRTYYADSVKGRFTISRDNAKNTVYLQMNSLKPEDTAVYYCAADYSRYYGGDYWGQGTQVTVSS | low polyreactivity
34 | QVQLVESGGGLVQAGGSLRLSCAASGSIFDPYAMGWYRQAPGKERELVAAISFRGGGTYYADSVKGRFTISRDNAKNTVYLQMNSLKPEDTAVYYCNVDYYWISGYVGSYIEFDYWGQGTQVTVSS | low polyreactivity
35 | QVQLEESGGGLVQAGGSLRLSCAASGRIFYRNAMGWYRQAPGKERELVAAISSSAGSTYYADSVKGRFTISRDHAKNTVYLQMNSLKPEDTAVYYCAAGSGTFVTRYRYDYWGQGTQVTVSS | high polyreactivity
36 | QVQLVESGGGLVQAGGSLRLSCAASGITLVRYAMGWYRQAPGKERELVAAISSSGGSTYYADSVKGRFTISRHNAKNTVYLQMNSLKPEDTAVYYCNAYVHSRRVEFNYWGQGTQVTVSS | high polyreactivity
37 | QVQLVESGGGLVQEGGSLRLNCAASGRTFFRNTMGWYRQAPRKDSELFATISSSGGSTYYADSVKGLFTISRDTAKNTVYLQMNSLKPEDTAVYYCAAAPSKWYYGYGYWGQGTQVTVSS | high polyreactivity
38 | QVQLVESGGGLVQAGGSLRLSCAASGSTFGGNAMGWYRQAPGKERELVAVISKRGGSTYYADSVKGRFTISRDYAKNTVYLQMNSLKPEDTAVYYCAATYSRYWSPTYDYWGQGTQVTVSS | high polyreactivity
39 | QVQLVESGRGLVQAGGSLRLSCAASGRISVFNAMGWYRQAPGKERELVAAISWSGGSTYYADSVKGRFTISRDNAKNTVYLQMNSLKPEDTAVYYCAARGHYQYYWGQGTQVTVSS | low polyreactivity
40 | QVHLVESGGGLVQAGGSLRLSCAASGSTFTPYAMGWYRQAPGKERELVAAITWRTGSTRYADSVKGRFTISRDNAKNTVYLQMNSLKPEDTAVYYCAAKVPRFGAPGVNYWGQGTQVTVSS | high polyreactivity
41 | QVQLVESGGGLVQAGGSLRLICAASGRTFRRNAMGWYRQAPGKERELVAGIRSSGGSTYYADSVKGRFTISRDNAKNTVYLQMNSLKTEDTAVYYFAAAYRSASFPYDYWGQGTQVTVSS | high polyreactivity
42 | QVQLQERGGGLVQAGGSLRLSCAASGIIYADGFMGLYRQAPGKEREFVATITGGGTSNYADSVKGRFTISRDNAKNTVYLQMNSLKPEDTAVYYCAVYFAWTIGFTYLGQGTQVTVSS | high polyreactivity
43 | QVQLVESGGGLVQAGGSLRLSCAASGSIFSTNAMGWYRQAPGKERELVAAITYSGSLTYYADSVKGRFTISRDNAKNTVYLQMNSLKPEDTAVYYCAADTSWYSWWFDYWGQGTQVTVSS | low polyreactivity
